US11571480B2, “Multi-ligand drug conjugates and uses thereof” (priority 2015, dated 2023)
Numbered stars: 1 amine (or outer) side, 2 acyl side, 3 side chain; on linkers, the order of the positions; unused ones are H or OH. Bridge positions count the residues as written; N and C are the ends. Square brackets hold non-standard residues; d marks the D form. Peptide text beside a SMILES is read from it. I, II: the chains in the order shown. * marks the point of attachment. Hexanoyl(6-succinimido-3yl) = O=C1CC([*:1])C(=O)N1CCCCCC(=O)[*:2]; Pteroyl = Nc1nc2ncc(CNc3ccc(C(=O)*)cc3)nc2c(=O)[nH]1; Dolaproine = CO[C@@H]([C@@H]1CCCN1)[C@@H](C)C(=O)O; Dil = CC[C@H](C)[C@H](NC)[C@@H](CC(=O)O)OC; γGlu = O=C(O)[C@H](CCC(=O)[*:2])N[*:1]; PABC = O=C(OCc1ccc(N[*:1])cc1)[*:2]; X1 = C[C@@H](N*)[C@@H](O)c1ccccc1; Cit = NC(=O)NCCC[C@H](N)C(=O)O; NMeV = CN[C@H](C(=O)O)C(C)C

What was measured:
[1] = tested on: ovarian cancer cell SKOV3; assay: Cytotoxicity test of conjugate LDC10B; assay type: cell-based, human; settings: SKOV3, Incubation Time 30 min
Method: (§1) Culture medium: RPMI 1640 Medium, no folic acid
(§2) 1) human nasopharyngeal cancer cell line KB, melanoma cell line A375, human lung cancer cell H1299, chronic myeloid leukemia cell line K562, human lung cancer cell H460, ovarian cancer cell SKOV3, breast cancer cell line HCC1954, human gastric cancer cell N87, and human breast cancer cell SK-BR-3 were incubated at 37° C., 5% CO2 in RPMI 1640 medium containing 10% fetal bovine serum, the cells were passaged every 2-3 days.
(§3) 2) human nasopharyngeal cancer cell line KB, melanoma cell line A375, human lung cancer cell H1299, chronic myeloid leukemia cell line K562, human lung cancer cell H460, ovarian cancer cell SKOV3, breast cancer cell line HCC1954, human gastric cancer cell N87, and human breast cancer cell SK-BR-3 were plated at 1×10^3 cells per well (96-well plate) and incubated for 8-12 h at 37° C., 5% CO2.
(§4) 3) Stock solutions of LDC conjugates or controls were prepared in PBS solution. 100 μL/well of serially diluted LDC conjugates or controls was added to the test cells in the plates and incubated for 15-30 min at 37° C., 5% CO2. The culture medium in the wells was then removed by aspiration and the test cells were incubated in fresh culture medium without conjugates (150 μL/well) for 2-3 days at 37° C., 5% CO2.
(§5) 4) CellTiter 96® Aqueous One Solution Cell Proliferation Assay (Promega) was added to each well to measure the amount of […] cells, and each plate was incubated in an incubator for 1 h at 37° C., 5% CO2.
(§6) 5) Each plate was read at 490 nm on a microplate reader, and the cell survivals were compared for test cells with or without the treatment of LDC conjugates. The LDC drug concentrations that are required for 50% cell death (IC50 values) were determined.

[2] = tested on: breast cancer cell line HCC1954; assay: Cytotoxicity test of conjugate LDC10B; assay type: cell-based, human; settings: HCC1954, Incubation Time 30 min
Method: as §1, §2, §3, §4, §5, §6

[3] = tested on: human lung cancer cell H460; assay: Cytotoxicity test of conjugate LDC10B; assay type: cell-based; settings: H460, Incubation Time 30 min
Method: as §1, §2, §3, §4, §5, §6

[4] = tested on: human gastric cancer cell N87; assay: Cytotoxicity test of conjugate LDC10B; assay type: cell-based; settings: N87, Incubation Time 30 min
Method: as §1, §2, §3, §4, §5, §6

melanoma cell line A375 [5] = assay: Cytotoxicity test of conjugate LDC10B; assay type: cell-based; settings: A375, Incubation Time 15 min
Method: as §1, §2, §3, §4, §5, §6

[6] = tested on: human nasopharyngeal cancer cell line KB; assay: Cytotoxicity test of conjugate LDC10B; assay type: cell-based; settings: Incubation Time 15 min
Method: as §1, §2, §3, §4, §5, §6

[7] = tested on: chronic myeloid leukemia cell line K562; assay: Cytotoxicity test of conjugate LDC10B; assay type: cell-based; settings: K562, Incubation Time 30 min
Method: as §1, §2, §3, §4, §5, §6

[8] = tested on: human lung cancer cell H1299; assay: Cytotoxicity test of conjugate LDC10B; assay type: cell-based; settings: H1299, Incubation Time 30 min
Method: as §1, §2, §3, §4, §5, §6

[9] = tested on: human breast cancer cell SK-BR-3; assay: Cytotoxicity test of conjugate LDC10B; assay type: cell-based; settings: SK-BR-3, Incubation Time 30 min
Method: as §1, §2, §3, §4, §5, §6

[10] = Detection of conjugate concentrations in xenograf tumor models (serum, anti-MMAE ELISA); assay type: in vivo, nude mice; settings: 10 mg/kg, peritoneal injection
Method: (§7) Animal: nude mice, aged 6-8 weeks, female
1) Human ovarian cancer cell SKOV3 and breast cancer cell line HCC1954 were incubated at 37° C., 5% CO2 in IMDM medium containing 10% fetal bovine serum, the cells were passaged every 2-3 days.
2) generation of tumors: 7×10^6 tumor cells were injected subcutaneously into the back of nude mice, and the mice were grouped for treatment after the tumor sizes were as large as about 100˜200 mm^3.
3) treatment: 3 mice/group, 10 mg/kg, peritoneal injection.
4) blood collection: the time for blood collection before treatment was set as 0, blood was collected at 20 min, 2 h, 4 h, and 24 h after treatment. The blood was centrifuged to collect serum, which was frozen and preserved.
5) Detection: the total amount of MMAE, LDC10B, LDC10H, as well as the MMAE metabolites of LDC10B and LDC10H in serum were detected by mice anti-MMAE ELISA kit.

Transplanted H460 tumor = assay: Inhibitory assay of conjugates LDC10B and LDC10H against xenograf tumors; assay type: in vivo, nude mice
Method: as §7
(§8) 1) human large cell lung cancer cell H460, human lung cancer cell A549, ovarian cancer cell SKOV3, and breast cancer cell line HCC1954 were incubated at 37° C., 5% CO2 in IMDM medium containing 10% fetal bovine serum, the cells were passaged every 2-3 days.
(§9) 2) generation of tumors: 7×10^6 tumor cells were injected subcutaneously into the back of nude mice, and the mice were grouped for treatment after the tumor sizes were as large as about 100-200 mm^3.
(§10) 3) treatment: 3 mice/group, treated with LDC10B, LDC10H, as well as controls MMAE and PBS with doses of 5 and 10 mg/kg every 5 days, three injections.
(§11) 4) the physical performance, body weights and tumor sizes of the animals were monitored. The number of animal death was recorded during the experiment.

[11] = tested on: Transplanted HCC1954 tumor; assay: as above; assay type: in vivo, nude mice; settings: 10 mg/kg
Method: as §7, §8, §9, §10, §11

Transplanted SKOV3 tumor = assay: as above; assay type: in vivo, nude mice; settings: 10 mg/kg
Method: as §7, §8, §9, §10, §11

[12] = tested on: human lung cancer cell H460; assay: Cytotoxicity test of conjugate LDC10BR; assay type: cell-based; settings: H460, incubated 15-30 min, then 2-3 days
Method: as §1
(§12) 1) human nasopharyngeal cancer cell line KB, melanoma cell line A375, and human lung cancer cell H460 were incubated at 37° C., 5% CO2 in RPMI 1640 medium containing 10% fetal bovine serum, the cells were passaged every 2-3 days.
(§13) 2) human nasopharyngeal cancer cell line KB, melanoma cell line A375, and human lung cancer cell H460 were plated at 1×10^3 cells per well (96-well plate) and incubated for 8-12 h at 37° C., 5% CO2.
as §4, with “control” for “controls”, “the” for “the test”, “plate” for “plates”
(§14) 4) CellTiter 96® Aqueous One Solution Cell Proliferation Assay (Promega) was added to each well to measure the amount of […] cells, and the plate was incubated in an incubator for 1 h at 37° C., 5% CO2.
(§15) 5) the plate was read at 490 nm on a microplate reader, and the cell survivals were compared for cells with or without the treatment of LDC conjugates. The LDC drug concentrations that are required for 50% cell death (IC50 values) were determined.

melanoma cell line A375 [13] = assay: Cytotoxicity test of conjugate LDC10BR; assay type: cell-based; settings: A375, incubated 15-30 min, then 2-3 days
Method: as §1, §12, §13
as §4, with “control” for “controls”, “the” for “the test”, “plate” for “plates”
as §14, §15

[14] = tested on: human nasopharyngeal cancer cell line KB; assay: Cytotoxicity test of conjugate LDC10BR; assay type: cell-based; settings: incubated 15-30 min, then 2-3 days
Method: as §1, §12, §13
as §4, with “control” for “controls”, “the” for “the test”, “plate” for “plates”
as §14, §15

SMILES: CC[C@H](C)[C@@H]([C@@H](CC(=O)N1CCC[C@H]1[C@H](OC)[C@@H](C)C(=O)N[C@H](C)[C@@H](O)c1ccccc1)OC)N(C)C(=O)[C@@H](NC(=O)[C@H](C(C)C)N(C)C(=O)OCc1ccc(NC(=O)[C@H](CCCNC(N)=O)NC(=O)[C@@H](NC(=O)CCCCCN2C(=O)CC(SC[C@H](NC(=O)CC[C@H](NC(=O)c3ccc(NCc4cnc5[nH]c(N)nc(=O)c5n4)cc3)C(=O)O)C(=O)N[C@@H](CCCCN)C(=O)N[C@@H](CCC(=O)O)C(=O)N[C@@H](Cc3ccccc3)C(=O)N[C@@H](CC(C)C)C(=O)N[C@@H](Cc3c[nH]cn3)C(=O)N3CCC[C@H]3C(=O)N[C@@H](CO)C(=O)N[C@@H](CCCCN)C(=O)N[C@H](C(=O)N[C@@H](CC(=O)O)C(=O)N[C@@H](CC(C)C)C(=O)N3CCC[C@H]3C(=O)N[C@@H](CCCNC(=N)N)C(=O)O)C(C)C)C2=O)C(C)C)cc1)C(C)C (stereo partly shown) [LDC10B] (I: {Pteroyl-γGlu}-CKEFLHPSKVDLPR-OH / II: V[Cit][PABC][NMeV]V[Dil][Dolaproine]-X1; linker I:1-II:N via Hexanoyl(6-succinimido-3yl))
- IC50 [1]: 15.7 nM
- IC50 [2]: 14.1 nM
- IC50 [3]: 50.4 nM
- IC50 [4]: 75.1 nM
- IC50 (melanoma cell line A375 [5]): 10000 nM
- IC50 [6]: 760 nM
- IC50 [7]: 14.8 nM
- IC50 [8]: 58.8 nM
- IC50 [9]: 15.9 nM
- Concentration in serum ([10]; 20 min): 10800 ng/mL
- Concentration in serum ([10]; 2 h): 5035 ng/mL
- Concentration in serum ([10]; 4 h): 530 ng/mL
- Concentration in serum ([10]; 24 h): 117.9 ng/mL
- detected in serum at 24 h after treatment (in words) ([10]; 24 h): Trace amount
- Concentration in serum ([10]; Before Treatment): 0 ng/mL
- Body weight of mice (Transplanted H460 tumor; 5 mg/kg, Before Injection): 23.13 g
- Body weight of mice (Transplanted H460 tumor; 5 mg/kg, Five days after Injection 1): 22.53 g
- Body weight of mice (Transplanted H460 tumor; 5 mg/kg, Five days after Injection 2): 22.26 g
- Body weight of mice (Transplanted H460 tumor; 5 mg/kg, Five days after Injection 3): 21.65 g
- Body weight of mice (Transplanted H460 tumor; 10 mg/kg, Before Injection): 22.51 g
- Body weight of mice (Transplanted H460 tumor; 10 mg/kg, Five days after Injection 1): 22.53 g
- Body weight of mice (Transplanted H460 tumor; 10 mg/kg, Five days after Injection 2): 23.37 g
- Body weight of mice (Transplanted H460 tumor; 10 mg/kg, Five days after Injection 3): 23 g
- Body weight of mice ([11]; Before Injection): 21.85 g
- Body weight of mice ([11]; Five days after Injection 1): 22.2 g
- Body weight of mice ([11]; Five days after Injection 2): 22.55 g
- Body weight of mice ([11]; Five days after Injection 3): 22.38 g
- Body weight of mice (Transplanted SKOV3 tumor; Before Injection): 22.96 g
- Body weight of mice (Transplanted SKOV3 tumor; Five days after Injection 1): 22.44 g
- Body weight of mice (Transplanted SKOV3 tumor; Five days after Injection 2): 23.23 g
- Body weight of mice (Transplanted SKOV3 tumor; Five days after Injection 3): 23.53 g
- IC50 [12]: 6800 nM
- IC50 (melanoma cell line A375 [13]): 51300 nM
- IC50 [14]: 2200 nM
